Reference: patent US20160083733

How the values were obtained:
[1] = target: GST-PDX1 T155A (bacterially purified), P52946
[2] = target: GST-PDX1 T11A (bacterially purified), P52946
[3] = target: Purified recombinant human PDX-1 (Abcam), P52945
[4] = target: GST-PDX1 WT (bacterially purified), P52946
[5] = target: GST-PDX1 T214A (bacterially purified), P52946
[6] = target: GST-PDX1 T126A (bacterially purified), P52946
[7] = target: GST-PDX1 T231A (bacterially purified), P52946
[8] = target: GST-PDX1 T152A (bacterially purified), P52946
GST-PDX1 T152A (bacterially purified), P52946, sequence (P52946 whole entry T152A, looked up): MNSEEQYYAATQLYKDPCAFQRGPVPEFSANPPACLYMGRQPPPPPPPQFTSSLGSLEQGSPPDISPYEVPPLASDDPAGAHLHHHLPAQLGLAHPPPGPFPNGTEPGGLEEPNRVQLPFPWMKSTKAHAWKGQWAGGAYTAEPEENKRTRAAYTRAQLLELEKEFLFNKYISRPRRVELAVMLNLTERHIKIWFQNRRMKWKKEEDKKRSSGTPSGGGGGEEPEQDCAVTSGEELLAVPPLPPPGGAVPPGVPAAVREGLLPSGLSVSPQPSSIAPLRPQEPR

GST-PDX1 T231A (bacterially purified), P52946, sequence (P52946 whole entry T231A, looked up): as the sequence (P52946 whole entry T152A, looked up) above, with A152T, T231A counted along it
GST-PDX1 T11A (bacterially purified), P52946, sequence (P52946 whole entry T11A, looked up): as the sequence (P52946 whole entry T152A, looked up) above, with T11A, A152T counted along it
GST-PDX1 WT (bacterially purified), P52946, sequence (P52946 whole entry): as the sequence (P52946 whole entry T152A, looked up) above, with A152T counted along it
GST-PDX1 T126A (bacterially purified), P52946, sequence (P52946 whole entry T126A, looked up): as the sequence (P52946 whole entry T152A, looked up) above, with T126A, A152T counted along it
GST-PDX1 T155A (bacterially purified), P52946, sequence (P52946 whole entry T155A, looked up): as the sequence (P52946 whole entry T152A, looked up) above, with A152T, T155A counted along it
GST-PDX1 T214A (bacterially purified), P52946, sequence (P52946 whole entry T214A, looked up): as the sequence (P52946 whole entry T152A, looked up) above, with A152T, T214A counted along it
Purified recombinant human PDX-1 (Abcam), P52945, sequence (P52945 whole entry): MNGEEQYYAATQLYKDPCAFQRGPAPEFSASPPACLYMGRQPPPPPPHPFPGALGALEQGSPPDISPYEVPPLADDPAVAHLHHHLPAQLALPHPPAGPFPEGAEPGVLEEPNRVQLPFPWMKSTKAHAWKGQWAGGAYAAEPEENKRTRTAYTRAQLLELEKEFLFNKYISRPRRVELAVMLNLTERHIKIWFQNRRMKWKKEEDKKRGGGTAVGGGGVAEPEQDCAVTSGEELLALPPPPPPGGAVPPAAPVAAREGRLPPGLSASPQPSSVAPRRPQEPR

B1: Purified human active MST1 (Upstate Biotechnology) (protein)
chain: METVQLRNPPRRQLKKLDEDSLTKQPEEVFDVLEKLGEGSYGSVYKAIHKETGQIVAIKQVPVESDLQEIIKEISIMQQCDSPHVVKYYGSYFKNTDLWIVMEYCGAGSVSDIIRLRNKTLTEDEIATILQSTLKGLEYLHFMRKIHRDIKAGNILLNTEGHAKLADFGVAGQLTDTMAKRNTVIGTPFWMAPEVIQEIGYNCVADIWSLGITAIEMAEGKPPYADIHPMRAIFMIPTNPPPTFRKPELWSDNFTDFVKQCLVKSPEQRATATQLLQHPFVRSAKGVSILRDLINEAMDVKLKRQESQQREVDQDDEENSEEDEMDSGTMVRAVGDEMGTVRVASTMTDGANTMIEHDDTLPSQLGTMVINAEDEEEEGTMKRRDETMQPAKPSFLEYFEQKEKENQINSFGKSVPGPLKNSSDWKIPQDGDYEFLKSWTVEDLQKRLLALDPMMEQEIEEIRQKYQSKRQPILDAIEAKKRRQQNF
Question: For B1, which “in vitro kinase assay, pan-phospho threonine western blot” value [1] is on record?
Answer: The value was “With the exception of T11A, PDX1-WT and other mutants were efficiently threonine phosphorylated”.

Question: What about the “in vitro kinase assay, pan-phospho threonine western blot” value [2] of the same protein?
Answer: Its value is “With the exception of T11A, PDX1-WT and other mutants were efficiently threonine phosphorylated”.

Question: And the “in vitro kinase assay (32P autoradiography; western blot with phospho-specific antibody)” value [3]?
Answer: The value was “In vitro kinase assays showed that MST1 efficiently phosphorylated PDX1”.

Question: And the “in vitro kinase assay, pan-phospho threonine western blot” value [4]?
Answer: Its value is “With the exception of T11A, PDX1-WT and other mutants were efficiently threonine phosphorylated”.

Question: And the “in vitro kinase assay, pan-phospho threonine western blot” value [5]?
Answer: The value was “With the exception of T11A, PDX1-WT and other mutants were efficiently threonine phosphorylated”.

Question: What about the “in vitro kinase assay, pan-phospho threonine western blot” value [6] of the same protein?
Answer: The value was “With the exception of T11A, PDX1-WT and other mutants were efficiently threonine phosphorylated”.

Question: And the “in vitro kinase assay, pan-phospho threonine western blot” value [7]?
Answer: The value was “With the exception of T11A, PDX1-WT and other mutants were efficiently threonine phosphorylated”.

Question: And the “in vitro kinase assay, pan-phospho threonine western blot” value [8]?
Answer: Its value is “With the exception of T11A, PDX1-WT and other mutants were efficiently threonine phosphorylated”.
